According to the supplement of paper PMC9170038:

Each sequence was assayed on MS2 coat protein (assay: apparent KD of MS2 coat protein, switch OFF state (with FMN for OFF switches, without FMN for ON switches); designed switch direction (-1 OFF switch, 1 ON switch): -1; higher = weaker reporter binding). Details: FMN input: 0 or 200 uM; Eterna round: R93 (includes R88 designs).
In short: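 Illumina sequencing clusters served as templates for on-chip transcription of the designed RNA switches. SNAP-549-labelled MS2 coat protein was then titrated in twofold steps from 0.7 or 1.5 nM to 3 µM, allowing 0.8–1.5 h per step at first and 10–20 min per step later. The buffer held 100 mM Tris-HCl pH 7.5, 80 mM KCl and 4 mM MgCl2, without or with constant ligand. Apparent KD is the median per design of normalised cluster binding-curve fits.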

In order of rising “apparent KD of MS2 coat protein” value:
1. GGUUGGCGAGGAUAUACAUGAGGAUCACCCAUGUGAGAGAAAAAAGUGAGACAGAAAAGUAGAAGGCGCUGACG [salish99-ex3-24]  0.00745 µM
2. AAAAAGCGAGGAUAUACAUAGCUAAGACAAAUAAGCAAAAAACAUGAGGAUCACCCAUGUAGAAGGCGCAAAAA [Exclusion2-01]  0.0154 µM
3. AUCAUGUAAGGAUAUAUAAGAAAAGAAAAGAAAGAAAAGAAAUAGAAGGUACAUGAGGAUCACCCAUGUAAGAA [EteRNA is fun!]  0.0156 µM
4. AACCUGCUAGGAUAUACAGCAGGGAUUCGAAAACCCACGAAACAUGAGGAUCACCCAUGUAGAAGGAGUAGGGA [Teainis]  0.0161 µM
5. AACAAGUGAGGAUAUUGGAAAAGUAAAUAAGUAAAACAAAACAAGAAGGCACAUGAGGAUCACCCAUGUAAAUA [JR_Exc004_Sub017]  0.0179 µM
6. AAAAAGGAAGGAUAUACGAACAUGUCAAAAGACGUGAAGGGACAUGAGGAUCACCCAUGUAGAAGGUUCAAAAA [JL Half Open 24]  0.0185 µM
7. AACCAACAUGAGGAUCACCCAUGUCAGGAUAUGCAAACAACAAACAACAAACAACAAAGCAGAAGGGACAACAA [63%, Olong, 1]  0.0211 µM
8. AGCUAGAGAGGAUAUACGUGAGUGAUAAAAGUCUGAUAACUACAUGAGGAUCACCCAUGUAGAAGGCUCUAGCA [Ex2 Design 166: Sub-opt 30]  0.0222 µM
9. AAAAACAGAGGAUAUACAAAAUUAUGACGAAAGUCAUAAAAACAUGAGGAUCACCCAUGUAGAAGGCUGGAAAA [Mat - Mod of Meechl]  0.0227 µM
10. AAAAAAGGAGGAUAUACGAACAUGUCGAAAGACGUGAAGGGACAUGAGGAUCACCCAUGUAGAAGGCUUAAAAA [Mat - Exclusion 2 - JL mod - D69]  0.0239 µM
11. AACUGACAUGAGGAUCACCCAUGUCAGGAUAUGCUUCAUAAAAAAAAAAAAAAAUGAUGCAGAAGGGACAUGGA [Design 29 :P Sub-opt 5]  0.0245 µM
12. CUUAUGUGAGGAUAUGUACAGAAAAAAAAGGGUGUAACUGUACAGAAGGCACAUGAGGAUCACCCAUGUGAAUA [EX4 380: S S Pseudoknot 5]  0.0251 µM
13. GAAGUGUUAGGAUAUCGAUGAAUAAUAAAACAAAGGAACAUUGAGAAGGAACAUGAGGAUCACCCAUGUAUAAC [May 81]  0.0252 µM
14. AUAGUACAUGAGGAUCACCCAUGUCAGGAUAUUCGAUAUGAAAAAAAAAAAAAGUUAAGGAGAAGGGACUAUAA [EX1 Malc#13]  0.0261 µM
15. UUAACACAUGAGGAUCACCCAUGUUAGGAUAUUGUGGUAGGAACAACUGGGAAACGCACAAGAAGGGACACACA [EX1 Malc#18 Mod 18 - Jieux - Exclusion 1]  0.0266 µM
16. AAAAAGUGAGGAUAUGCAGUGGCCUGUAGACGCAAGCACUUGUAGAAGGCACAUGAGGAUCACCCAUGUUUAAA [EX4 Malc#30]  0.028 µM
17. AUCAUGUAAGGAUAUGACUACAUAAAAAAAAAAAAAUGUAGUCAGAAGGUACAUGAGGAUCACCCAUGUACAAA [Mod of Brourd]  0.0294 µM
18. UAAAGGAUAGGAUAUACAUGAGGAUCACCCAUGUGAAUAAAUAAGAAAAUAAAAGAAAGUAGAAGGAUCAAGAA [LROPPY Exclusion 3 - v04_deltaG=3.9 break up As mixed]  0.0296 µM
19. AAAAAGUGAGGAUAUACAUGAGGAUCACCCAUGUGUAUAAAAAAUUACACAAAAGAAAGUAGAAGGCACUAAAG [Mat - Exclusion 3 - Mayanna mod - D112]  0.0308 µM
20. AGAAAACAUGAGGAUCACCCAUGUCAGGAUAUCAAAAAGAAAAGAAAAGAAAGAAGAAUGAGAAGGGACAAGAA [Khasekhem(wy)]  0.0321 µM
21. AAGAAGGUAGGAUAUACUAAAGAAAUAAAAAGAAAGAAAGAACAUGAGGAUCACCCAUGUAGAAGGGCCAAGAA [Merkare]  0.0352 µM
22. CUCAAGUAAGGAUAUUCAAGAAAAGAAGAGAAAGAAAAGAAGAAGAAGGUACAUGAGGAUCACCCAUGUAAGAA [EteRNA is fun!]  0.0353 µM
23. AAAAAGGGAGGAUAUACAACACAGACAGAACAACAAACACAACAUGAGGAUCACCCAUGUAGAAGGCCCAAAAA [Default title]  0.0354 µM
24. AGUUAGUCAGGAUAUGCGUGAAGAAUAAAAGAAAUAACAACGCAGAAGGGACAUGAGGAUCACCCAUGUAAACA [May 55]  0.0373 µM
25. AACUAGCUAGGAUAUACAUGAGGAUCACCCAUGUAAAAAAAAAAAAAAAGAUAUAUAUGUAGAAGGAGCUAGUA [Mod of Brourd]  0.0413 µM
26. AAAAAACAUGAGGAUCACCCAUGUAAGGAUAUGCAAAAUAAAAGAAAUAAAAAGGAAAGCAGAAGGUACAUGAA [JL wbt mod 8]  0.0425 µM
27. AAGGGACAUGAGGAUCACCCAUGUGAGGAUAUGCUAUGGAAAAUAAAAAUAAAACAUAGCAGAAGGCAUAAAAA [Denovo 9]  0.0448 µM
28. UAAAGGCGAGGAUAUACAUGAGGAUCACCCAUGUGAAUAAAUAAGAAAAUAAAAGAAAGUAGAAGGCGCAAGAA [LROPPY Exclusion 3 - v03_deltaG=1.9 break up As mixed]  0.0449 µM
29. AAAAGGUCAGGAUAUGCCCGCCGGGUGGGAAGGCCGGGUGGGUAGAAGGGACAUGAGGAUCACCCAUGUAAAAA [Opal 42]  0.0479 µM
30. AAAAAGUCAGGAUAUACGAAAGUGCGAAAGCACAAAAAGGGACAUGAGGAUCACCCAUGUAGAAGGGACAAGAA [Married to this design, 61% 3]  0.0504 µM
31. AAGAAACAUGAGGAUCACCCAUGUCAGGAUAUGCAAAACUGACGAAAGUCAGAAGAAAGCAGAAGGGACUAGAA [5-pair stack]  0.052 µM
32. AAAAAGGGAGGAUAUACAUGAGGAUCACCCAUGUAAAAAAAAAAAAAAGGGAGGGAAGGUAGAAGGCCCAAAAA [Excls3-II]  0.0525 µM
33. GGAAAGCGAGGAUAUACAUGAGGAUCACCCAUGUAAAAGAAAAGAAAAGAAAGAAAAUGUAGAAGGCGCAAAAA [Exclusion 3 plus]  0.0544 µM
34. AAGAAACAUGAGGAUCACCCAUGUCAGGAUAUCAAAAAGAAAAGAAAAGAAAGAAGAAUGAGAAGGGACAAAGG [Meryibre Khety I]  0.0617 µM
35. GGGUCACAUGAGGAUCACCCAUGUAAGGAUAUGCUAGGGAUGGAAACCAGGCCGCAACGCAGAAGGUACUAAAG [Janelle Amethyst 18 Mod 13 - Jieux - Exclusion 1]  0.0645 µM
36. AAGAAACAUGAGGAUCACCCAUGUCAGGAUAUACAAAAGAAAAGAAAAGAAAGAAGAAGUAGAAGGGACAAAGG [Neitiqerty Siptah]  0.0693 µM
37. AAAAAGUGAGGAUAUACAUGAGGAUCACCCAUGUGAUAAAAAAAAAGGGUGGAAGAAAGUAGAAGGCACCAAAA [Ex 3 May 49]  0.0775 µM
38. AGUUGGCGAGGAUAUACAUGAGGAUCACCCAUGUGAAAAAAGGGCUCGAAAGAGAAAAGUAGAAGGCGCUGACA [73%, Moding Norbert Elias, 7]  0.0984 µM
39. AAAACUAGAGGAUAUACGUACAUGUCAAAAGACGUGAAGGGACAUGAGGAUCACCCAUGUAGAAGGCUAGAAAA [JL Stem Breaker 9]  0.104 µM
40. AGCUAGUCAGGAUAUACGAAAAUGUCAGAAGACGUAAGGGAACAUGAGGAUCACCCAUGUAGAAGGGACUAGCA [Diamond 41]  0.108 µM
41. GGAAAACAUGAGGAUCACCCAUGUAAGGAUAUGCAAAAGGAUAUAGAAGGAAAAAAAAGCAGAAGGUACAAAGG [salish99-ex1-21]  0.151 µM
42. AAAAAGGCAGGAUAUACAUGAGGAUCACCCAUGUAAAGAAAAGAAAGAUCCAAAGAAAGUAGAAGGGCCAAAAA [Ex3 sub 3]  0.17 µM
43. AAGAAGUCAGGAUAUACAUGAGGAUCACCCAUGUAAAAGAAAGAAAAGGGAAAGAAAAGUAGAAGGGACAAGAA [Menkheperre Thutmose III]  0.208 µM
44. AACAUGUGAGGAUAUGUACGAAAAAAUAAAAAAAUAAAAGUACAGAAGGCACAUGAGGAUCACCCAUGUGAAAA [EX4 395: Minimal 8]  0.271 µM
45. GAGAAGUGAGGAUAUCGAAGACAGACGAAAAGUCUGUCAAACGAGAAGGCACAUGAGGAUCACCCAUGUGGGAG [Mat - Exaclusion 4 - Eli mod - D75]  0.302 µM
